In publication PMC2910870 (Neuron, 2010):

B1: β-NRX1+4 (mouse β-neurexin 1 LNS domain, with splice insert 4) (domain or fragment)
chain: not shown
modifications: N-glycosylation at Asn184
B2: β-NRX2+4 (rat β-neurexin 2 LNS domain, with splice insert 4) (domain or fragment)
chain: not shown
modifications: N-glycosylation at Asn186

What was measured:
Assay in all cases: SPR
[1] = target: NL2A (rat neuroligin 2 cholinesterase-like region, with insert A) (rat, UniProt Q62888 46-612)
[2] = target: NL1AB (rat neuroligin 1 cholinesterase-like region, with inserts A and B) (rat, UniProt Q62765 48-638)
Chain of NL1AB (rat neuroligin 1 cholinesterase-like region, with inserts A and B) (Q62765 48-638): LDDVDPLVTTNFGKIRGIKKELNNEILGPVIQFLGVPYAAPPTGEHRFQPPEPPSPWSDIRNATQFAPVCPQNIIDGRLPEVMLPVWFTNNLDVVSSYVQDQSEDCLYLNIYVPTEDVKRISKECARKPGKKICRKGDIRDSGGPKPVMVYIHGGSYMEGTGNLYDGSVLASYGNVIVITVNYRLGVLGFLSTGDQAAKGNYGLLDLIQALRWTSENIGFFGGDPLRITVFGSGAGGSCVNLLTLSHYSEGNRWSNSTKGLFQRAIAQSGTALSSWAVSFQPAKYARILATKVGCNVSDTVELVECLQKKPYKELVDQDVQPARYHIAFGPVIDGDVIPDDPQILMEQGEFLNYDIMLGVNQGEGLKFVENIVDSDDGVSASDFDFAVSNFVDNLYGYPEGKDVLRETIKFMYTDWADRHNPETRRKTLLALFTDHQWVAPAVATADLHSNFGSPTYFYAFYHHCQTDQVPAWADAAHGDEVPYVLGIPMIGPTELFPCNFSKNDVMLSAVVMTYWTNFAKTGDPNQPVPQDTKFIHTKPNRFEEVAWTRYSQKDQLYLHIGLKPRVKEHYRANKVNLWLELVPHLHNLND

[3] = target: NL3A1A2 (rat neuroligin 3 cholinesterase-like region, with inserts A1 and A2) (rat, UniProt Q62889 42-633)
Chain of NL3A1A2 (rat neuroligin 3 cholinesterase-like region, with inserts A1 and A2) (Q62889 42-633): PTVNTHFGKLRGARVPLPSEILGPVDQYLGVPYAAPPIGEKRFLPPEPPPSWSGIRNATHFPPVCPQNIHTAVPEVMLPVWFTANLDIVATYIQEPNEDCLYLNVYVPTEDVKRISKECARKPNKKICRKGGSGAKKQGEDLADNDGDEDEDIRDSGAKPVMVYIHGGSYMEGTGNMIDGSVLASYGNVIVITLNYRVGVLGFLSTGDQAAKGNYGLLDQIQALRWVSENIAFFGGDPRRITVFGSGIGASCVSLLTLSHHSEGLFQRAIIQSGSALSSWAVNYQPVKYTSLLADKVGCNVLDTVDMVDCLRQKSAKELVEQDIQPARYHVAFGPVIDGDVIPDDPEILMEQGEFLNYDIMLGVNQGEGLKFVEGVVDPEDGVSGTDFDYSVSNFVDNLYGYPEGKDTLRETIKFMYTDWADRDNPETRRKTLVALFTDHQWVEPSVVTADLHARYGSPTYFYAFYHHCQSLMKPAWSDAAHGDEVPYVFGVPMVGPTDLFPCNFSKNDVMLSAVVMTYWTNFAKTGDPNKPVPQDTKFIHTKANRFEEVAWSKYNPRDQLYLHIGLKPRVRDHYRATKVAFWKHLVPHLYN

Chain of NL2A (rat neuroligin 2 cholinesterase-like region, with insert A) (Q62888 46-612): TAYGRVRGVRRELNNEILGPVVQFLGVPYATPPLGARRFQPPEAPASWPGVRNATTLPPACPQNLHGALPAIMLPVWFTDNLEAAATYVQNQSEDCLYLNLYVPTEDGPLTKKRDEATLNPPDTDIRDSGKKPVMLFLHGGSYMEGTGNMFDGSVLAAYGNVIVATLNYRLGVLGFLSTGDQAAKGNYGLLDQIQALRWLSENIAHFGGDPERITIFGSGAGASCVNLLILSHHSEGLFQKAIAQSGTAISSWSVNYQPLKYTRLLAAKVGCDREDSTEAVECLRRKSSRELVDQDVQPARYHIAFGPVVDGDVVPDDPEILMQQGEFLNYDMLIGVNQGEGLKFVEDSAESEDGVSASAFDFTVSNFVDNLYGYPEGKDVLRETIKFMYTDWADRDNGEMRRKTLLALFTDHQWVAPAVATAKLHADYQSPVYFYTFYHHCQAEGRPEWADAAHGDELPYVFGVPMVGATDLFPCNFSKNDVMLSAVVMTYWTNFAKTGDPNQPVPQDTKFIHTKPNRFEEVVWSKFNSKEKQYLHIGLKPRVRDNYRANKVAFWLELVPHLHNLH

Binder	Kd [1] [µM]	Kd [2] [µM]	Kd [3] [µM]
B1	3.17	2.82	21
B2	3.01	5.66	48
